Measurements: paper PMC5066947, “Voltage-Dependent Anion Channel-1, a Possible Ligand of Plasminogen Kringle 5” (PLoS ONE, 2016)

Target: T1, recombinant voltage-dependent anion channel-1 (human, UniProt P21796 1-283)
T1 construct: human voltage-dependent anion channel-1; cDNA amplified from pCMV6-XL5-VDAC-1 with primers designed on NM_003374, cloned into pET-28b by XhoI and NheI; band at about 32 kDa on SDS-PAGE; also called VDAC-1; hVDAC-1
Assay: SPR; Kringle 5 coupled to a CM5 sensor chip by amino coupling (180 RU); VDAC-1 injected at 0 to 280.00 μmol·L^-1; uncoupled cell as reference; 25°C, 40 μl·min^-1; regeneration with 10 mmol·L^-1 HEPES pH 7.4, 300 mmol·L^-1 NaCl
Conditions: both partners purified

T1 sequence (P21796 whole entry): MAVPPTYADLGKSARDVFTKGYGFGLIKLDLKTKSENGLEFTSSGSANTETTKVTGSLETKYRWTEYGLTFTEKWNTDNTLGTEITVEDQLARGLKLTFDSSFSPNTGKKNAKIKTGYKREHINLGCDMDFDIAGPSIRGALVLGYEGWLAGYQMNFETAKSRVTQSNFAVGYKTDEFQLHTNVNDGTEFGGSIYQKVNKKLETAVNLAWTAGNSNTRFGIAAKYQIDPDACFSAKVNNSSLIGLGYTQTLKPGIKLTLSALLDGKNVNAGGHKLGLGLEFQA

B1: recombinant plasminogen Kringle 5 (domain or fragment, human)
chain: DCMFGNGKGYRGKRATTVTGTPCQDWAAQEPHRHSIFTPETNPRAGLEKNYCRNPDGDVGGPWCYTTNPRKLYDYCDVPQCAAP
notes: fifth kringle domain of plasminogen, about 80 amino acid residues; expressed from pET-28b-hK5; band at about 8 kDa on SDS-PAGE; The vector pET-28b-hK5 was built in the authors' laboratory; neither the residue limits nor the end of the 6 x His tag are told; also called hK5; source: E. coli BL21 (DE3), soluble, purified (Ni2+-chelated Sepharose 6 Fast Flow, Sephadex G-25)
With B1 the Ka was 2430 M⁻¹.
